This data set has as its target Dps (Escherichia coli) (UniProt P0ABT2). Put plainly: AFM. The settings on record: EMSA: 50 mM Tris-HCl pH 7.5, 0.1 mM EDTA, 50 mM NaCl, 37°C 30 min, footprinting: 50 mM Tris-HCl pH 8.0, 0.1 mM EDTA, 0.1 mM DTT, 10 mM MgCl2, 50 mM NaCl …. A general note: In EMSA bound probe runs differently from free probe, usually more slowly.

In turn, pET28b native yielded a binding signal (nm DNA per bound Dps) of 135.
With pET28b nicked with Nt.BspD6I, the binding signal (nm DNA per bound Dps) (nicked at GAGTC sites (9 sites), 4 nt 3' of the site, top strand) is 117.

The record behind these values is paper PMC4433220.
